What was measured:
Type in all cases: binding
GST-fused CALCR C-tail = assay: GST-pull down, CALCR C-tail; conditions: percent of [35S]-GASP input; pH 7.4, 1 h at 4°C; three independent experiments
Protocol: (§1) cDNAs encoding the cytoplasmic C-tail of 14 GPCRs and 2 one-transmembrane receptors were cloned into the pGEX-2T prokaryotic expression vector downstream the GST sequence. […]
(§2) GST-fusion proteins were immobilized on glutathione-coupled Sepharose beads (GE Healthcare) for 1 h at 4°C and incubated with [^35S]-labelled in vitro translated GASP proteins or their truncated or mutated forms in ice-cold binding buffer containing: 20 mM Tris-HCl pH 7.4, 150 mM NaCl, 1 mM EDTA, 1 mM DTT, 10% glycerol and 1% Triton X-100. […] The supernatants were then analyzed by SDS-PAGE, the gels were stained with Coomassie blue to visualize GST-fusion proteins, dried and analyzed using a Phosphor-imager (Personal Molecular Imager FX, Biorad) to visualize [^35S]-labelled GASPs. Quantification was performed with the Quantity One software (Biorad). GST-pull down quantification data were analyzed using GraphPad Prism 4.03 (GraphPad Software). Quantifications presented are means of at least three independent experiments.

GST-fused GPCR C-tails = assay: GST-pull down, GPCR C-tails; conditions: twelve GPCR C-tails
Excerpt: (§3) cDNAs encoding the cytoplasmic C-tail of 14 GPCRs and 2 one-transmembrane receptors were cloned into the pGEX-2T prokaryotic expression vector downstream the GST sequence. The following pGEX constructs were engineered: pGEX-DOR encoding residues 314–372 of the δ-opioid receptor (referring to Swiss-Prot accession number U10504), pGEX-MOR encoding residues 334–400 of the µ-opioid receptor (L29301), pGEX-KOR encoding residues 326–380 of the κ–opioid receptor (U17298), pGEX-ORL1 encoding residues 315–370 of the opioid receptor-like 1 (X77130), pGEX-M1 encoding residues 414–460 of the muscarinic M1 acetylcholine receptor (X52068), pGEX-M2 encoding residues 436–466 of the muscarinic M2 acetylcholine receptor (M16404), pGEX- ADRB1 encoding residues 373–477 of the β1 adrenergic receptor (J03019), pGEX-ADRB2 encoding residues 322–413 of the β2 adrenergic receptor (P07550), pGEX-CALCR encoding residues 407–490 of the calcitonin receptor (L00587), pGEX-CNR2 encoding residues 295–360 of the cannabinoid type 2 receptor (P34972), pGEX-5HT7 encoding residues 380–445 of the 5-hydroxytryptamine 7 receptor (L21195), pGEX-H2 encoding residues 284–349 of the histamine 2 receptor (S57565), pGEX-TXA2 encoding residues 304–343 of the α isoform of the thromboxane A2 receptor (D38081), pGEX-FZ4 encoding residues 493–537 of the frizzled 4 receptor (AB032417), pGEX-TGFβ encoding residues 805–849 of the type III transforming growth factor b receptor (L07594), pGEX-IGF1 encoding residues 1268–1367 of the insulin growth factor I receptor (X04434). Free GST was produced by using the pGEX-4T3 expression vector without insert. The same plasmid was used to clone the cDNA encoding a central domain of GASP-1, corresponding to amino acids 380 to 1073, downstream the GST sequence. All these plasmids were transformed into the Escherichia coli BL21 strain and expression was induced using 1mM of isopropylthiogalactoside for 2 h at 37°C. Bacteria were then pelleted, resuspended in PBS supplemented with cOmplete protease inhibitors (Roche), lysed at 1.5 kbar using a basic Z cell disrupter (constant system) and finally the lysates were cleared by centrifugation (10,000g, 15 min, 4°C).
(§4) cDNAs encoding GASP-1 and GASP-2 were cloned into the pcDNA3 eukaryotic expression vectors. cDNAs encoding GASP-3, -6, -7, and -9 were subcloned into pcDNA3.1 vectors. All the clones were controlled by DNA sequencing. The in vitro production was performed by using the TNT Quick-coupled Transcription/Translation T7 kit (Promega) in presence of [^35S]-Methionine according to the instructions from the manufacturer.
GST-fusion proteins were immobilized on glutathione-coupled Sepharose beads (GE Healthcare) for 1 h at 4°C and incubated with [^35S]-labelled in vitro translated GASP proteins or their truncated or mutated forms in ice-cold binding buffer containing: 20 mM Tris-HCl pH 7.4, 150 mM NaCl, 1 mM EDTA, 1 mM DTT, 10% glycerol and 1% Triton X-100. The mixture was incubated for 1 h at 4°C with gentle rocking. The beads were washed five times with the same ice-cold buffer, resuspended in 30 µl SDS-PAGE sample buffer, incubated 10 min at 65°C, and pelleted for 60 s at 3000 g. The supernatants were then analyzed by SDS-PAGE, the gels were stained with Coomassie blue to visualize GST-fusion proteins, dried and analyzed using a Phosphor-imager (Personal Molecular Imager FX, Biorad) to visualize [^35S]-labelled GASPs. Quantification was performed with the Quantity One software (Biorad). GST-pull down quantification data were analyzed using GraphPad Prism 4.03 (GraphPad Software). Quantifications presented are means of at least three independent experiments. […]

[1] = tested on: GST-fused IGF1 (insulin growth factor I receptor) C-tail; assay: GST-pull down, IGF1 C-tail
Excerpt: as §3, §4
(§5) GST-fusion proteins were immobilized on glutathione-coupled Sepharose beads (GE Healthcare) for 1 h at 4°C and incubated with [^35S]-labelled in vitro translated GASP proteins or their truncated or mutated forms in ice-cold binding buffer containing: 20 mM Tris-HCl pH 7.4, 150 mM NaCl, 1 mM EDTA, 1 mM DTT, 10% glycerol and 1% Triton X-100. The mixture was incubated for 1 h at 4°C with gentle rocking. The beads were washed five times with the same ice-cold buffer, resuspended in 30 µl SDS-PAGE sample buffer, incubated 10 min at 65°C, and pelleted for 60 s at 3000 g. The supernatants were then analyzed by SDS-PAGE, the gels were stained with Coomassie blue to visualize GST-fusion proteins, dried and analyzed using a Phosphor-imager (Personal Molecular Imager FX, Biorad) to visualize [^35S]-labelled GASPs. Quantification was performed with the Quantity One software (Biorad). GST-pull down quantification data were analyzed using GraphPad Prism 4.03 (GraphPad Software). Quantifications presented are means of at least three independent experiments.

GST-fused DOR C-tail = assay: GST-pull down, DOR C-tail; conditions: percent of [35S]-GASP input; pH 7.4, 1 h at 4°C; three independent experiments
Excerpt: as §3, §4, §5

[2] = tested on: GST-fused H2 (histamine H2 receptor) C-tail; assay: GST-pull down, H2 C-tail; conditions: percent of [35S]-GASP input; pH 7.4, 1 h at 4°C; three independent experiments
Protocol: as §1, §2

GST-fused TXA2 C-tail = assay: GST-pull down, TXA2 C-tail; conditions: percent of [35S]-GASP input; pH 7.4, 1 h at 4°C; three independent experiments
Protocol: as §1, §2

[3] = tested on: GST-fused TGFβ (type III transforming growth factor β receptor) C-tail; assay: GST-pull down, TGFβ C-tail
Excerpt: as §3, §4, §5

GST-fused ADRB1 C-tail = assay: GST-pull down, ADRB1 C-tail; conditions: percent of [35S]-GASP input; pH 7.4, 1 h at 4°C; three independent experiments
Excerpt: as §3, §4, §5

GST-fused M1 C-tail = assay: GST-pull down, M1 C-tail; conditions: percent of [35S]-GASP input; pH 7.4, 1 h at 4°C; three independent experiments
Excerpt: as §3, §4, §5

[4] = percent of [35S]-GASP input, controls

interaction with IGF1 C-tail ([1]; non-GPCR control): No interaction was detected
GASP input retained by control IGF1 C-tail [1, 4]: less than 1%
GASP input retained by H2 C-tail [2]: around 2%
interaction with TGFβ C-tail ([3]; non-GPCR control): No interaction was detected
GASP input retained by control TGFβ C-tail [3, 4]: less than 1%
B1: GASP-9: member of the second GASP subfamily, without GASP motif (protein)
chain: MSRVRDAGCVAAGIVIGAGAWYCVYKYTRGRDQTKKRMAKPKNRAVAGTGARARAGLRAGFTIDLGSGFSPPTPVRAEAEDRAQDEASALDTVGAEAVAPAASSAEAQSGAGSQAQEADGAGVGPKAESVVGAAMASAIAPPPGVTEALGAAEAPAMAGAPKVAEAPREAETSRAAVPPGTVVPTEAAAPTEVTEGPGVAAPTKVAEAPGVASPTEAAEAPVPATPTGAAAPTGAAESPGTSGSPRTAVVPGTSAAKKATPGAHTGAIPKATSATGAVPKGGGKGVTRSRNGGKGKGKKSKVEVDELGMGFRPGDGAAAAAAASANGGQAFLAEVPDSEEGESGWTDTESDSDSEPETQRRGRGRRPVAMQKRPFPYEIDEILGVRDLRKVLALLQKSDDPFIQQVALLTLSNNANYSCNQETIRKLGGLPIIANMINKTDPHIKEKALMAMNNLSENYENQGRLQVYMNKVMDDIMASNLNSAVQVVGLKFLTNMTITNDYQHLLVNSIANFFRLLSQGGGKIKVEILKILSNFAENPDMLKKLLSTQVPASFSSLYNSYVESEILINALTLFEIIYDNLRAEVFNYREFNKGSLFYLCTTSGVCVKKIRALANHHDLLVKVKVIKLVNKF
modifications: [35S]-methionine labelled
GASP input retained by CALCR C-tail (GST-fused CALCR C-tail): around 2%
interaction with GPCR C-tails (GST-fused GPCR C-tails): very weak interactions
GASP input retained by DOR C-tail (GST-fused DOR C-tail): around 2%
GASP input retained by TXA2 C-tail (GST-fused TXA2 C-tail): around 2%
GASP input retained by ADRB1 C-tail (GST-fused ADRB1 C-tail): around 2%
GASP input retained by M1 C-tail (GST-fused M1 C-tail): around 2%
